According to the Human Domainome abundance scans (Beltran et al. 2025):

B1: GAS2-like protein 1, residues 209 to 276; numbered along this chain, Q99501 (parent)
chain: DELVREILGRCTCPDQFPMIKVSEGKYRVGDSSLLIFVRVLRSHVMVRVGGGWDTLEHYLDKHDPCRC
B2: E3 ubiquitin-protein ligase TRIM36, residues 208 to 252; numbered along this chain, Q9NQ86 (parent)
chain: KILMCPEHETERINMYCELCRRPVCHLCKLGGNHANHRVTTMSSA

Variants of: B1
Assay: abundance fitness (aPCA) (normalised: wild type 0, dead -1); higher = more abundant; growth selection in yeast, the domain comes from the species named
Details: Homo sapiens

Abundance fitness of substitutions, site by site:
R5: C -0.316, D -0.161, P -0.947, G -0.158, F -0.257, K 0.091, Y -0.185, A 0.056, N 0.194, V -0.584, Q 0.084, E 0.056, I -0.465, L -0.178, T -0.059, W -0.126, S 0.093, H -0.15
V4: C -0.717, H -0.855, M -0.34, K -0.685, R -0.71, W -0.796, I 0.049, E -0.463, T -0.833, L -0.388, S -0.836, G -0.966, Q -1.01, A -0.804, N -0.876, F -0.35, D -0.888
L3: N -0.675, P -0.711, E -0.627, T -0.526, R 0.01, Q -0.025, H -0.34, F -0.221, W -0.643, D -0.559, S -0.459, K -0.06, V -0.324, C -0.117, Y -0.268, I -0.129, M -0.034
I7: T -0.38, M -0.273, K -0.367, P -1.04, C -0.365, H -0.473, R -0.85, W -0.748, E -0.128, Q 0.069, L -0.012, N -0.74, V -0.219, D -0.704, Y -0.275, G -0.763
E6: N -0.431, G -0.347, F -0.708, D -0.136, P -0.864, S -0.205, Y -0.694, L -0.446, I -0.521, V -0.642, Q -0.071, M -0.309, C -0.701, R -0.165, T -0.141, W -0.821, K -0.151, H -0.452
C13: A -0.974, Y -0.744, F -0.894, S -0.728, R -0.851, L -0.719, D -0.752, V -0.306, K -1.13, M -0.786, T -0.817, I -0.304, H -0.874, P -0.972, W -0.922, Q -0.869, E -0.726, G -0.682
D15: A 0.04, C -0.188, F -0.259, E 0.101
D1: Y -0.574, E -0.087, L -0.761, N -0.536, F -0.55, C -0.657, R -0.624, A -0.623, V -0.653, P -0.517, S -0.205, T -0.707, G -0.596, K -0.233, W -0.621, H -0.693
R10: T -0.111, K -0.135, S -0.318, C -0.72, G -0.432, H -0.013, E -0.386, V -0.747, P -0.863, Y -0.564, N -0.234, F -0.448, W -0.728, A -0.311, I -0.766, Q -0.088
L8: I -0.002, W -0.886, M -0.254, G -0.819, Q -0.323, T -0.414, R -0.754, V -0.071, D -0.702, A -0.352, K -0.948, E -0.737, S -0.532, P -0.819, Y -1.05, F -0.704, N -0.793, C -0.47, H -0.436
G9: N -0.076, R -0.204, P -0.818, Q 0.061, D 0.107, F -0.399, I -0.572, V -0.587, A 0.007, S 0.077, W -0.71, C -0.54, K -0.12, E 0.03, M -0.127, L -0.445, H -0.221, T -0.346
T12: N -0.355, Y -0.8, S -0.181, W -0.831, V -0.267, E -0.381, C -0.247, H -0.542, K -0.169, D -0.797, Q -0.193, P -0.749, I -0.313, L -0.664, M -0.419
E2: N 0.073, R 0, V -0.434, H -0.006, A -0.263, C -0.282, Y -0.057, D 0.149, F 0.1, P -0.218, K 0.031, S -0.06, M -0.224, T 0.012
C11: S -0.961, R -0.932, F -0.848, V -0.752, Y -0.892, Q -0.986, I -1.08, A -0.618, H -0.966, P -1.17, K -0.949, T -0.882, E -1, D -0.84, L -0.895, W -1, M -0.771
P14: A -0.142, C -0.439, G -0.502, T -0.136, W -0.816, K 0.016, N -0.424, F -0.509, Q -0.161, M -0.457, I -0.336, V -0.213, S -0.162, R -0.147

Variants of: B2
Assay: as above
Details: Homo sapiens

Abundance fitness, by site and new letter:
M42: S 0.06, D 0.039, H -0.524, V 0.001, F -0.034, T 0.097, Q 0.067, A 0.12, W -0.071, E 0.16, I -0.282, K 0.079, Y -0.134, G 0.123, L -0.031, P 0.087, N -0.059
S43: M -0.13, F -0.415, C -0.129, T -0.093, D -0.063, Y -0.439, V -0.075, E 0.083, L -0.181, K -0.145, W -0.352, G -0.022, A 0.001, Q 0.027, I -0.272, N -0.042, H -0.067
T41: L -0.149, I -0.158, P -0.059, A -0.111, R -0.093, M -0.142, C -0.112, K 0.007, V -0.084, D -0.026, H -0.526, Q -0.11, W -0.249, Y -0.29, F -0.189, E 0.071, S -0.043, G 0.003, N -0.289
S44: P 0.034, E 0.086, M -0.138, Q -0.038, R -0.1, K -0.212, H -0.119, A 0.031, L -0.179, D 0.069, N -0.038, F -0.263, V -0.047, W -0.274, C -0.208, T -0.028, I -0.246
A45: N -0.549, G 0.023, M -0.232, R -0.112, D 0.078, T -0.143, P 0.015, S -0.074, L -0.156, C -0.482, V -0.091, Q -0.21, K -0.265
T40: I -0.265, S -0.025, L -0.243, H -0.146, Q -0.014, F -0.317, P 0.003, N 0.141, V -0.023, W -0.287, R -0.089, Y -0.191, M -0.318, K -0.112
